Data reported in patent US12012619B2, “Methods of use for an NADPH-regeneration system based on a monomeric isocitrate dehydrogenase” (INDUSTRY FOUNDATION OF CHONNAM NATIONAL UNIVERSITY, priority 2021, dated 2024).

Key:
CgIDH = molecular target: T1, CgIDH (Corynebacterium glutamicum, UniProt P50216); assay: Enzyme activity inhibitory effect by α-ketoglutarate on CgIDH; type: biochemical; settings: 10 mM α-ketoglutarate added; 5 nM CgIDH
T1 construct: His-tag (His6, pET24a-derived LEHHHHHH) (C); made in house; host or cells: E. coli BL21 (DE3)
T1 sequence (P50216 with tags, fused parts or gaps): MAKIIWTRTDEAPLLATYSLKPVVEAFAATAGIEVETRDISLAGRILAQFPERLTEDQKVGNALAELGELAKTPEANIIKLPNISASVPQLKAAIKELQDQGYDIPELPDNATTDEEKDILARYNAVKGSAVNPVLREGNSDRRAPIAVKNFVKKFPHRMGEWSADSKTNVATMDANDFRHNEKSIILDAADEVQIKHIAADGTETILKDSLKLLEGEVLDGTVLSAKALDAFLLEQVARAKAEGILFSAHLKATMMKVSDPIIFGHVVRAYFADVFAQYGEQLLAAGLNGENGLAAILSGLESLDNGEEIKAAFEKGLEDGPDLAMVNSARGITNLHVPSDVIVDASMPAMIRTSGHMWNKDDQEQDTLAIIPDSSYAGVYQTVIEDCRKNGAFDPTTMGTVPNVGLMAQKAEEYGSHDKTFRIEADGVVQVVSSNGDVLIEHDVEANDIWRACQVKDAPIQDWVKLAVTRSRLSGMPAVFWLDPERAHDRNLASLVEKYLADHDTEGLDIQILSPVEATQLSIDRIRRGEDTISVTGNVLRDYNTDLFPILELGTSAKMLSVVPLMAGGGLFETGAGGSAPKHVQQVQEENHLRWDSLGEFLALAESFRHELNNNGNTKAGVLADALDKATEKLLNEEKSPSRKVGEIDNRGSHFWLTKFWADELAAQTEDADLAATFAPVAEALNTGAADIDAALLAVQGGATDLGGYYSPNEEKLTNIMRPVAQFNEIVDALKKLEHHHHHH
Procedure: (§1) In order to confirm an enzyme activity inhibitory effect by α-ketoglutarate, which is an enzyme reaction product of the recombinant protein produced in the present invention, a reaction product, in which 5 nM of CgIDH and 5 nM AvIDH were each added to a reaction solution containing 100 mM potassium phosphate buffer (pH 7.4), 0.8 mM manganese sulfate, 40 mM DL-isocitric acid, and 0.5 mM NADP, was prepared. Thereafter, α-ketoglutarate was added for each concentration to proceed the reaction as described in Example 5, and the degree of increase of NADPH was measured. Here, an experimental group to which α-ketoglutarate was not added was used as a control group.

AvIDH = molecular target: T2, AvIDH (Azotobacter vinelandii, UniProt P16100); assay: Enzyme activity inhibitory effect by α-ketoglutarate on AvIDH; type: biochemical; settings: 20 mM α-ketoglutarate added; 5 nM AvIDH
T2 construct: His-tag (His6, pET24a-derived LEHHHHHH) (C); made in house; host or cells: E. coli BL21 (DE3)
T2 sequence (P16100 with tags, fused parts or gaps): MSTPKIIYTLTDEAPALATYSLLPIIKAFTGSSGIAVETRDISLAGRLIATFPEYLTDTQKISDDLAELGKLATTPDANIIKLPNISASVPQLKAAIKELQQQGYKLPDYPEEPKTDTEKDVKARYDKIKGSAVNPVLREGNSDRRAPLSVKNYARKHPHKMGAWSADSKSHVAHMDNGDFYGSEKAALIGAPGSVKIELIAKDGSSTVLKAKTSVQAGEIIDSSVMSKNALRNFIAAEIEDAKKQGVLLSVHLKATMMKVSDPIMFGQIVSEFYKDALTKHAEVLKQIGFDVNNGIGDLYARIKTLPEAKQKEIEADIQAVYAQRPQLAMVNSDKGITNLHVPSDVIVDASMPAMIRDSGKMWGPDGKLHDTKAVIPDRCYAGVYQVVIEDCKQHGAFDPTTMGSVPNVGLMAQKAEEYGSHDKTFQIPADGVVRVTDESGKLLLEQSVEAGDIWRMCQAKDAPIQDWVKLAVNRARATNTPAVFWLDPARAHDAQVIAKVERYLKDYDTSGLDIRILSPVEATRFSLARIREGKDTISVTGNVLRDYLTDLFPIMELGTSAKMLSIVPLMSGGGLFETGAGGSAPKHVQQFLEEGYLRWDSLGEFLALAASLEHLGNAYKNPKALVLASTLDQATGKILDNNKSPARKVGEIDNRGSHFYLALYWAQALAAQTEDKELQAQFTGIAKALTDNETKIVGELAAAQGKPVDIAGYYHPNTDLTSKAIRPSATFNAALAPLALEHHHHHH
Procedure: as §1

NADPH regeneration [1] = assay: Kinetic constant analysis of purified recombinant protein; type: biochemical; settings: wild-type CgIDH and AvIDH parameters as control groups
Procedure: The analysis of kinetic properties related to an enzyme activity of the recombinant protein, that is, a kinetic constant, was performed by the following procedure.
The analysis of kinetic activity for each of the recombinant proteins purified in Example 2 was performed based on the method described in Chen, R. & Yang, H. Biochemistry and Biophysics, 383(2):238-245 (2000); and Watanabe, S. Microbiology 151(4):1083-1094 (2005).
Here, a Km (uM) value representing the affinity of the enzyme to the substrate as a reaction constant used in enzyme kinetics, a Kcat(S-1) value, which means the metabolic turnover number of the enzyme, and a Kcat/Km (S-1, M-1) value representing a reaction efficiency of the enzyme, were determined.

NADPH regeneration [2] = assay: Specific activity analysis of recombinant IDH protein (NADPH increase measured by fluorescence); type: biochemical; settings: 5 nM enzyme; for specific activity: 100 mM potassium phosphate buffer pH 7.4, 0.8 mM MnSO4, 0.8 mM DL-isocitric acid, 0.5 mM NADP+
Procedure: In order to confirm the degree of NADPH regeneration by the activity of the IDH recombinant protein, CgIDH and AvIDH were each added to a reaction solution containing 100 mM potassium phosphate buffer (pH 7.4), 0.8 mM manganese sulfate (MnSO4), 0.8 mM DL-isocitric acid, and 0.5 mM NADP+ so that the final concentrations were 5 nM, and the degree of increase of NADPH depending on the enzyme activity was measured with a spectrophotometer. When fluorescence was measured using a spectrophotometer, an excitation wavelength was set to 350 nm and an emission wavelength was set to 450 nm, and the measurement results are shown in FIG. 7.

[3] = Storage stability of recombinant protein; type: physicochemical; settings: storage at 4° C. for 30 days; 5 nM enzyme
Procedure: In order to evaluate the stability of the recombinant protein produced in the present invention, after a certain period of time, each of the recombinant proteins stored at 4° C. was added to a reaction solution containing 100 mM potassium phosphate buffer (pH 7.4), 0.8 mM manganese sulfate, 40 mM DL-isocitric acid, and 0.5 mM NADP+ so that the final concentration was 5 nM, the reaction was proceeded as described in Example 5, and the degree of increase of NADPH was measured.

cytochrome P450 BM3 = cytochrome P450 BM3 (Priestia megaterium, UniProt P14779); assay: Coupling reaction with cytochrome P450 BM3, HPLC analysis of hydroxylation product of substrate; type: biochemical, Bacillus megaterium; settings: coupling reaction 5 min; control = NADPH itself added; CgIDH 10 nM or AvIDH 5 nM, 500 nM P450 BM3, 2 mM omeprazole
Chain of cytochrome P450 BM3 (P14779 whole entry): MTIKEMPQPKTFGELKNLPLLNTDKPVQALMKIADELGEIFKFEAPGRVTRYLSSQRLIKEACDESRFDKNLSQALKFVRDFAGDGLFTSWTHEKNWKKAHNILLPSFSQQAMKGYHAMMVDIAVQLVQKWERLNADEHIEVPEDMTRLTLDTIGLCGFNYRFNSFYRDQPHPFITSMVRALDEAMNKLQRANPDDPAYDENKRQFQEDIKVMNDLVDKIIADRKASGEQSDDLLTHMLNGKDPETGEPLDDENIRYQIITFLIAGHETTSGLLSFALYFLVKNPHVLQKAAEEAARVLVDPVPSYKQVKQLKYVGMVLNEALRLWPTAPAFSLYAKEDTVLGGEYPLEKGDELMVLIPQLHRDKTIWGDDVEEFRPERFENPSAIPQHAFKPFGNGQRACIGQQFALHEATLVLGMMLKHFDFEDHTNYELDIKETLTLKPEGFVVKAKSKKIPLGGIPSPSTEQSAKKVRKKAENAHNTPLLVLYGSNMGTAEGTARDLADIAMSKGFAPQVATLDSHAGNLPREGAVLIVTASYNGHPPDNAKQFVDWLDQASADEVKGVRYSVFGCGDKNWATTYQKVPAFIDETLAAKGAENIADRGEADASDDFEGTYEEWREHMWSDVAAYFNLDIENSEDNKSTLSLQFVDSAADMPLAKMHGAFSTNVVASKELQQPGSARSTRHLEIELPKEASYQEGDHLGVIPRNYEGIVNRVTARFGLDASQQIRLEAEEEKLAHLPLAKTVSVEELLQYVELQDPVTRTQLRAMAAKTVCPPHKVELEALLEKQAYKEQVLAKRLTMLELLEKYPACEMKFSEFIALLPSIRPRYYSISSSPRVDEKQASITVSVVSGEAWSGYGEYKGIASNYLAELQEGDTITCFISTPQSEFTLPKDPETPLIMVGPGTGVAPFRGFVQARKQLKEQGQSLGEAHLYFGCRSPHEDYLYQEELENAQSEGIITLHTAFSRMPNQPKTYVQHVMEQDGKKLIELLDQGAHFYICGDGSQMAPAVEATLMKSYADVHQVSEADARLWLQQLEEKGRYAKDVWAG
Procedure: In the above reaction, in order to confirm that the activity of cytochrome P450 BM3 is maintained by substantial NADPH regeneration, and the hydroxylation reaction of omeprazole, which is one of the substrates, occurs, to 1 mL of a reaction solution containing 100 mM potassium phosphate buffer (pH 7.4), 0.8 mM manganese sulfate, 40 mM DL-isocitric acid, 0.5 mM NADP, and 2 mM omeprazole, CgIDH and cytochrome P450 BM3 were added so that the final concentrations were 10 nM and 500 nM, respectively, and AvIDH and cytochrome P450 BM3 were added so that the final concentrations were 5 nM and 500 nM, respectively, to prepare a reaction product.
The reaction mixture was recovered by 90 uL each time, mixed with 90 uL of methanol to stop the reaction, and then HPLC analysis was performed. Specific HPLC performance conditions are as follows: • HPLC was performed using an Alliance HPLC system (Waters). • A SunFire 18C column was used as a column • The amount of sample loading was set to 20 uL. • As a HPLC mobile phase, 30% acetonitrile was flowed at a flow rate of 1 mL/min, and an eluate was measured with ultraviolet (UV) light at 302 nm. • Analysis was performed using an Empower 3 (Waters) program. […]

## O=C(O)CCC(=O)C(=O)O [α-ketoglutarate]
CgIDH
  reduction of enzyme activity: 30%
AvIDH
  reduction of enzyme activity: 30%

B1: AvIDH: recombinant monomeric isocitrate dehydrogenase from Azotobacter vinelandii, SEQ ID NO: 2, C-terminal histidine tag (protein)
chain: MSTPKIIYTLTDEAPALATYSLLPIIKAFTGSSGIAVETRDISLAGRLIATFPEYLTDTQKISDDLAELGKLATTPDANIIKLPNISASVPQLKAAIKELQQQGYKLPDYPEEPKTDTEKDVKARYDKIKGSAVNPVLREGNSDRRAPLSVKNYARKHPHKMGAWSADSKSHVAHMDNGDFYGSEKAALIGAPGSVKIELIAKDGSSTVLKAKTSVQAGEIIDSSVMSKNALRNFIAAEIEDAKKQGVLLSVHLKATMMKVSDPIMFGQIVSEFYKDALTKHAEVLKQIGFDVNNGIGDLYARIKTLPEAKQKEIEADIQAVYAQRPQLAMVNSDKGITNLHVPSDVIVDASMPAMIRDSGKMWGPDGKLHDTKAVIPDRCYAGVYQVVIEDCKQHGAFDPTTMGSVPNVGLMAQKAEEYGSHDKTFQIPADGVVRVTDESGKLLLEQSVEAGDIWRMCQAKDAPIQDWVKLAVNRARATNTPAVFWLDPARAHDAQVIAKVERYLKDYDTSGLDIRILSPVEATRFSLARIREGKDTISVTGNVLRDYLTDLFPIMELGTSAKMLSIVPLMSGGGLFETGAGGSAPKHVQQFLEEGYLRWDSLGEFLALAASLEHLGNAYKNPKALVLASTLDQATGKILDNNKSPARKVGEIDNRGSHFYLALYWAQALAAQTEDKELQAQFTGIAKALTDNETKIVGELAAAQGKPVDIAGYYHPNTDLTSKAIRPSATFNAALAPLALEHHHHHH
modifications: C-terminal His tag; AvIDH protein
NADPH regeneration [1]
  Kcat compared with the wild-types: slight decrease
NADPH regeneration [2]
  specific activity: 28 U/mg
[3]
  enzyme activity after storage: did not decrease
Cytochrome P450 BM3
  elution amount of 5′-hydroxyomeprazole based on the elution amount produced in the control group: 114%

B2: CgIDH: recombinant monomeric isocitrate dehydrogenase from Corynebacterium glutamicum, SEQ ID NO: 1, C-terminal histidine tag (protein)
chain: MAKIIWTRTDEAPLLATYSLKPVVEAFAATAGIEVETRDISLAGRILAQFPERLTEDQKVGNALAELGELAKTPEANIIKLPNISASVPQLKAAIKELQDQGYDIPELPDNATTDEEKDILARYNAVKGSAVNPVLREGNSDRRAPIAVKNFVKKFPHRMGEWSADSKTNVATMDANDFRHNEKSIILDAADEVQIKHIAADGTETILKDSLKLLEGEVLDGTVLSAKALDAFLLEQVARAKAEGILFSAHLKATMMKVSDPIIFGHVVRAYFADVFAQYGEQLLAAGLNGENGLAAILSGLESLDNGEEIKAAFEKGLEDGPDLAMVNSARGITNLHVPSDVIVDASMPAMIRTSGHMWNKDDQEQDTLAIIPDSSYAGVYQTVIEDCRKNGAFDPTTMGTVPNVGLMAQKAEEYGSHDKTFRIEADGVVQVVSSNGDVLIEHDVEANDIWRACQVKDAPIQDWVKLAVTRSRLSGMPAVFWLDPERAHDRNLASLVEKYLADHDTEGLDIQILSPVEATQLSIDRIRRGEDTISVTGNVLRDYNTDLFPILELGTSAKMLSVVPLMAGGGLFETGAGGSAPKHVQQVQEENHLRWDSLGEFLALAESFRHELNNNGNTKAGVLADALDKATEKLLNEEKSPSRKVGEIDNRGSHFWLTKFWADELAAQTEDADLAATFAPVAEALNTGAADIDAALLAVQGGATDLGGYYSPNEEKLTNIMRPVAQFNEIVDALKKLEHHHHHH
modifications: C-terminal His tag; CgIDH protein
NADPH regeneration [1]
  Kcat compared with the wild-types: slight decrease
NADPH regeneration [2]
  enzyme activity (enzyme reaction slope) compared with AvIDH at the same amount of protein: higher enzyme activity
  specific activity: 57 U/mg
[3]
  enzyme activity after storage: did not decrease
Cytochrome P450 BM3
  elution amount of 5′-hydroxyomeprazole based on the elution amount produced in the control group: 126%
